Key:
[1] = target: N-terminally truncated HPV-11 E1 (E1*, amino acids 72-649) (human papilloma virus type 11 (HPV-11)) (UniProt P04014); experiment: cell-based or functional assay
[2] = target: the molecule itself; experiment: BMH cross-linking of 35S-labelled protein, immunoprecipitation, gel electrophoresis (FIG. 10)
[3] = target: the molecule itself; experiment: BMH cross-linking with ss DNA (FIG. 12B)
[4] = target: the molecule itself; experiment: BMH cross-linking of in-vitro translated truncated proteins (FIG. 11)
[5] = target: T1, HPV-11 E1 (330-649) fused to the GAL4 DNA-binding domain (BD) (human papilloma virus type 11 (HPV-11)); experiment: yeast two-hybrid, β-galactosidase activity (FIG. 1B)
T1 construct: also called larger E1 fragment (330-649)

Molecule “thioredoxin fusion protein TRX-E1 (353-431) (from UniProt P04014 353-431)” has a 50% inhibitory concentration for inhibition of the binding of E1* (72-649) to the origin [1] of 3 µM.

B1: N-terminally truncated HPV-11 E1 (E1*, amino acids 72-649) (enzyme)
chain: ADAHYATVQDLKRKYLGSPYVSPISNVANAVESEISPRLDAIKLTTQPKKVKRRLFETRELTDSGYGYSEVEAATQVEKHGDPENGGDGEERDTGRDIEGEGVEHREAEAVDDSTREHADTSGILELLKCKDIRSTLHGKFKDCFGLSFVDLIRPFKSDRTTCADWVVAGFGIHHSIADAFQKLIEPLSLYAHIQWLTNAWGMVLLVLIRFKVNKSRCTVARTLGTLLNIPENHMLIEPPKIQSGVAALYWFRTGISNASTVIGEAPEWITRQTVIEHSLADSQFKLTEMVQWAYDNDICEESEIAFEYAQRGDFDSNARAFLNSNMQAKYVKDCAIMCRHYKHAEMKKMSIKQWIKYRGTKVDSVGNWKPIVQFLRHQNIEFIPFLSKLKLWLHGTPKKNCIAIVGPPDTGKSCFCMSLIKFLGGTVISYVNSCSHFWLQPLTDAKVALLDDATQPCWTYMDTYMRNLLDGNPMSIDRKHRALTLIKCPPLLVTSNIDISKEEKYKYLHSRVTTFTFPNPFPFDRNGNAVYELSDANWKCFFERLSSSLDIEDSEDEEDGSNSQAFRCVPGSVVRTL
notes: Made by coupled in vitro transcription/translation in rabbit reticulocyte lysate; 35S-labelled in the cross-linking assay; Forms up to hexamers; also called E1 (72-649); E1* (72-649)
B1: binds [2].

B2: E1* (72-649) F509A (enzyme)
chain: ADAHYATVQDLKRKYLGSPYVSPISNVANAVESEISPRLDAIKLTTQPKKVKRRLFETRELTDSGYGYSEVEAATQVEKHGDPENGGDGEERDTGRDIEGEGVEHREAEAVDDSTREHADTSGILELLKCKDIRSTLHGKFKDCFGLSFVDLIRPFKSDRTTCADWVVAGFGIHHSIADAFQKLIEPLSLYAHIQWLTNAWGMVLLVLIRFKVNKSRCTVARTLGTLLNIPENHMLIEPPKIQSGVAALYWFRTGISNASTVIGEAPEWITRQTVIEHSLADSQFKLTEMVQWAYDNDICEESEIAFEYAQRGDFDSNARAFLNSNMQAKYVKDCAIMCRHYKHAEMKKMSIKQWIKYRGTKVDSVGNWKPIVQFLRHQNIEFIPFLSKLKLWLHGTPKKNCIAIVGPPDTGKSCFCMSLIKFLGGTVISYVNSCSHAWLQPLTDAKVALLDDATQPCWTYMDTYMRNLLDGNPMSIDRKHRALTLIKCPPLLVTSNIDISKEEKYKYLHSRVTTFTFPNPFPFDRNGNAVYELSDANWKCFFERLSSSLDIEDSEDEEDGSNSQAFRCVPGSVVRTL
B2: binds [3].

B3: truncated HPV-11 E1 (353-649) made by in-vitro translation (enzyme)
chain: DSQFKLTEMVQWAYDNDICEESEIAFEYAQRGDFDSNARAFLNSNMQAKYVKDCAIMCRHYKHAEMKKMSIKQWIKYRGTKVDSVGNWKPIVQFLRHQNIEFIPFLSKLKLWLHGTPKKNCIAIVGPPDTGKSCFCMSLIKFLGGTVISYVNSCSHFWLQPLTDAKVALLDDATQPCWTYMDTYMRNLLDGNPMSIDRKHRALTLIKCPPLLVTSNIDISKEEKYKYLHSRVTTFTFPNPFPFDRNGNAVYELSDANWKCFFERLSSSLDIEDSEDEEDGSNSQAFRCVPGSVVRTL
notes: also called residues 353-649 of E1
B3: binds [4].

B4: C-terminal HPV-11 E1 fragment (amino acids 435-649) fused to the GAL4 activation domain (AD) (other)
chain: DSVGNWKPIVQFLRHQNIEFIPFLSKLKLWLHGTPKKNCIAIVGPPDTGKSCFCMSLIKFLGGTVISYVNSCSHFWLQPLTDAKVALLDDATQPCWTYMDTYMRNLLDGNPMSIDRKHRALTLIKCPPLLVTSNIDISKEEKYKYLHSRVTTFTFPNPFPFDRNGNAVYELSDANWKCFFERLSSSLDIEDSEDEEDGSNSQAFRCVPGSVVRTL
notes: also called E1 (435-649)
B4: no binding [5].

B5: truncated HPV-11 E1 (330-649) made by in-vitro translation (enzyme)
chain: ASTVIGEAPEWITRQTVIEHSLADSQFKLTEMVQWAYDNDICEESEIAFEYAQRGDFDSNARAFLNSNMQAKYVKDCAIMCRHYKHAEMKKMSIKQWIKYRGTKVDSVGNWKPIVQFLRHQNIEFIPFLSKLKLWLHGTPKKNCIAIVGPPDTGKSCFCMSLIKFLGGTVISYVNSCSHFWLQPLTDAKVALLDDATQPCWTYMDTYMRNLLDGNPMSIDRKHRALTLIKCPPLLVTSNIDISKEEKYKYLHSRVTTFTFPNPFPFDRNGNAVYELSDANWKCFFERLSSSLDIEDSEDEEDGSNSQAFRCVPGSVVRTL
B5: binds [4].

B6: truncated HPV-11 E1 (191-649) made by in-vitro translation (enzyme)
chain: DTSGILELLKCKDIRSTLHGKFKDCFGLSFVDLIRPFKSDRTTCADWVVAGFGIHHSIADAFQKLIEPLSLYAHIQWLTNAWGMVLLVLIRFKVNKSRCTVARTLGTLLNIPENHMLIEPPKIQSGVAALYWFRTGISNASTVIGEAPEWITRQTVIEHSLADSQFKLTEMVQWAYDNDICEESEIAFEYAQRGDFDSNARAFLNSNMQAKYVKDCAIMCRHYKHAEMKKMSIKQWIKYRGTKVDSVGNWKPIVQFLRHQNIEFIPFLSKLKLWLHGTPKKNCIAIVGPPDTGKSCFCMSLIKFLGGTVISYVNSCSHFWLQPLTDAKVALLDDATQPCWTYMDTYMRNLLDGNPMSIDRKHRALTLIKCPPLLVTSNIDISKEEKYKYLHSRVTTFTFPNPFPFDRNGNAVYELSDANWKCFFERLSSSLDIEDSEDEEDGSNSQAFRCVPGSVVRTL
notes: also called E1 protein comprised of amino acids 191-649
B6: binds [4].

From patent publication US20040002059A1 (Boehringer Ingelheim, published 2004)
